Residue numbers refer to the chain shown, from its start. Values belong to the binder of their own block, whether it stands above or below them.
What was measured:
human GITR [1] = target: T1, human GITR (human, UniProt Q9Y5U5 26-241); assay: receptor occupancy by flow cytometry on activated splenic CD4+ T cells of hGITR/hPD-1 KI mice; free GITR detected with competing Anti-hGITR-BV605, total GITR with non-competing Anti-hGITR NANOBODY-A488 [panel B]
T1 construct: whole, on cells; also called hGITR; TNFRSF18
T1 sequence (looked up): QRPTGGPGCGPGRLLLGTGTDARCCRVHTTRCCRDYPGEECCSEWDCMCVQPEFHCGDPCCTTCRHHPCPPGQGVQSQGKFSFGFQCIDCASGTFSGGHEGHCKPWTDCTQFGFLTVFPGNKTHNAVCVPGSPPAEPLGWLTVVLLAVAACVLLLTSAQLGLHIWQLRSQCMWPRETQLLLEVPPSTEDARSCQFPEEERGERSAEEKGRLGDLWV
From the text: (§1) Anti-hGITR NANOBODY®-A488 as non-competing agent detecting total GITR Activated T cells were then washed and analyzed on a Cytek® Aurora flow cytometer.

cynomolgus PD-1 [2] = target: T2, cynomolgus PD-1 (cynomolgus monkey); assay: flow cytometry on pre-B 300.19 cells expressing cyno PD-1, anti-human IgG Fc detection, 4PL fit
T2 construct: whole, on cells; also called cyno PD-1; cyPD-1
Method: (§2) Binding properties of the bispecific molecules and controls to multiple targets expressed on cell surfaces were evaluated with flow cytometry. […] Cell suspensions were analyzed with iQue Screener 3 (Sartorius, Intellicyt). In each washing step, plates were centrifuged for 2 minutes at 300×g at 4° C., supernatants discarded and buffer dispensed by Biotek ELX405 microplate washer (BioTek). Other reagents were added either manually or with ViaFlo (Integra). EC50s were estimated by dose response modelling. Curves were fit using 4 parameter logistic regression in GraphPad (GraphPad Software Inc.).

human PD-1 [3] = target: T3, human PD-1 (human, UniProt Q15116 25-288); assay: flow cytometry on pre-B 300.19 cells expressing human PD-1, anti-human IgG Fc detection, 4PL fit
T3 construct: On pre-B 300.19 cells stably expressing human PD-1, on NFAT-RE/PD-1 Jurkat reporter cells and on T cells of hGITR/hPD-1 knock-in mice; also called hPD-1; PD1 (on reporter cells)
T3 sequence (Q15116 25-288 limits assumed): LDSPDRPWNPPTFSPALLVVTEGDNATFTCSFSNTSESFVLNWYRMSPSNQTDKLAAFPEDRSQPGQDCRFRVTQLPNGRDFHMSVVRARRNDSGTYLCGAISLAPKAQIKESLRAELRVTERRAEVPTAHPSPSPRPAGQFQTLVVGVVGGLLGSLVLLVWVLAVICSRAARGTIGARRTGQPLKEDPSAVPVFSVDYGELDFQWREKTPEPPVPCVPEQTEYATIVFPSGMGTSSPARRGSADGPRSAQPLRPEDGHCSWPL
Method: as §2

human GITR [4] = target: T1, human GITR; assay: receptor occupancy by flow cytometry on activated splenic CD8+ T cells of hGITR/hPD-1 KI mice; free GITR detected with competing Anti-hGITR-BV605, total GITR with non-competing Anti-hGITR NANOBODY-A488 [panel B]
From the text: as §1

human GITR [5] = target: T1, human GITR; assay: cell-based or functional assay
human PD-1 [6] = target: T3, human PD-1; assay: cell-based or functional assay
cynomolgus GITR [7] = target: cynomolgus GITR (cynomolgus monkey); assay: cell-based or functional assay
human PD-1 [8] = target: T3, human PD-1; assay: receptor occupancy by flow cytometry on activated splenic CD8+ T cells of hGITR/hPD-1 KI mice; free PD-1 detected with competing Anti-hPD-1-BV421, total PD-1 with non-competing Anti-hPD-1 NANOBODY-A647 [panel A]
From the text: as §1

human PD-1 [9] = target: T3, human PD-1; assay: receptor occupancy by flow cytometry on activated splenic CD4+ T cells of hGITR/hPD-1 KI mice; free PD-1 detected with competing Anti-hPD-1-BV421, total PD-1 with non-competing Anti-hPD-1 NANOBODY-A647 [panel A]
From the text: as §1

cynomolgus GITR [10] = target: T4, cynomolgus GITR (cynomolgus monkey); assay: flow cytometry on NFkB-NlucP/HEK293 cells expressing cyno GITR, anti-human IgG Fc detection, 4PL fit
T4 construct: whole, on cells; also called cyno GITR; cyGITR
Method: as §2

human GITR [11] = target: T1, human GITR; assay: flow cytometry on NFkB-NlucP/HEK293 cells expressing human GITR, anti-human IgG Fc detection, 4PL fit
Method: as §2

cynomolgus PD-1 [12] = target: T2, cynomolgus PD-1; assay: flow cytometry on pre-B 300.19 cells expressing cyno PD-1, detection with anti-human IgG Fc F(ab')2 [panel B]
human PD-1 [13] = target: T3, human PD-1; assay: flow cytometry on pre-B 300.19 cells expressing human PD-1, detection with anti-human IgG Fc F(ab')2 [panel A]

EC50 (read off the curve) (cynomolgus PD-1 [12]): ~0.4 nM
EC50 (read off the curve) (human PD-1 [13]): ~0.2 nM
EC50 (read off the curve) (human PD-1 [8]): ~0.3 nM
EC50 (read off the curve) (human PD-1 [9]): ~0.4 nM
B3: GITRLmut/anti-PD-1 mAb2 (antibody, V domains shown)
VH: QLQLQESGPGLVKPSETLSLTCTVSGGSISSSSYFWGWIRQPPGKGLEWIGSIYRSGSTYYNPSLKSRVTISVDTSKNQFSLKLSSVTAADTAVYYCARGITGDPGDYWGQGTLVTVSS
VL: EIVLTQSPATLSLSPGERATLSCGASQSVPINFLAWYQQKPGLAPRLLIYEASSRHTGIPDRFSGSGSGTDFTLTISRLEPEDFAVYYCGQYGSSPYTFGQGTKLEIK

EC50 (read off the curve) (cynomolgus PD-1 [12]): ~0.5 nM
EC50 (read off the curve) (human PD-1 [13]): ~0.3 nM
B4: GITRLmut/anti-PD-1 mAb1 (antibody, V domains shown)
VH: B3 VH with S31T
VL: B3 VL with P30S, H56A, G90Q

The next lines start with the binder.

B1: GITRL/anti-PD-1 mAb2 (bispecific antibody, human IgG1, kappa, L234A L235A)
heavy: not shown
light: EIVLTQSPATLSLSPGERATLSCGASQSVPINFLAWYQQKPGLAPRLLIYEASSRHTGIPDRFSGSGSGTDFTLTISRLEPEDFAVYYCGQYGSSPYTFGQGTKLEIKRTVAAPSVFIFPPSDEQLKSGTASVVCLLNNFYPREAKVQWKVDNALQSGNSQESVTEQDSKDSTYSLSSTLTLSKADYEKHKVYACEVTHQGLSSPVTKSFNRGEC
notes: Single-chain GITRL trimer inserted between VH and CH1 of each heavy chain; bivalent for PD-1, hexavalent for GITR; also called GITRL trimer/anti-PD-1 mAb2; single-chain GITRL trimer/anti-PD-1 mAb2
EC50 (read off the curve) (human GITR [1]): ~0.2 nM
EC50 (cynomolgus PD-1 [2]): 0.37 nM
EC50 (human PD-1 [3]): 0.24 nM
EC50 (read off the curve) (human GITR [4]): ~0.2 nM
hGITR EC50 (reporter assay) (human GITR [5]): 0.0077 nM
hPD-1 IC50 (reporter assay) (human PD-1 [6]): 0.5 nM
cyGITR EC50 (reporter assay) (cynomolgus GITR [7]): 0.0083 nM
EC50 (read off the curve) (human PD-1 [8]): ~0.03 nM
EC50 (read off the curve) (human PD-1 [9]): ~0.03 nM
EC50 (cynomolgus GITR [10]): 0.034 nM
EC50 (human GITR [11]): 0.034 nM

B2: GITRL/anti-PD-1 mAb1 (bispecific antibody, human IgG1, kappa, L234A L235A)
heavy: not shown
light: B1 light with P30S, H56A, G90Q
notes: Single-chain GITRL trimer inserted between VH and CH1 of each heavy chain; bivalent for PD-1, hexavalent for GITR; also called GITRL trimer/anti-PD-1 mAb1; single-chain GITRL trimer/anti-PD-1 mAb1
EC50 (cynomolgus PD-1 [2]): 0.58 nM
EC50 (human PD-1 [3]): 0.33 nM
hGITR EC50 (reporter assay) (human GITR [5]): 0.0087 nM
hPD-1 IC50 (reporter assay) (human PD-1 [6]): 0.56 nM
cyGITR EC50 (reporter assay) (cynomolgus GITR [7]): 0.01 nM
EC50 (cynomolgus GITR [10]): 0.014 nM
EC50 (human GITR [11]): 0.014 nM

Source: patent US20250388676A1 (Sanofi, published 2025)
